From the supplement of paper PMC12764529
± gives the half width of the 95% confidence interval.

Assays:
[1] = folding stability dG unfold from trypsin proteolysis; higher = more stable
Protocol: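 Folding stability of de novo designed mini-proteins (<80 aa, no Cys; designed by TrROS, TrMRF, ProteinMPNN and the joint model) was measured by cDNA display proteolysis with trypsin and chymotrypsin. Each protease was used at 11 concentrations in a threefold dilution series plus a no-protease condition. K50 was inferred by Bayesian fitting of sequencing counts, and dG unfold was derived against a sequence-predicted unfolded-state K50 (Tsuboyama et al. method). Sequences shown include variable-length N-terminal GS-type padding (SAGGSAGG...) inside a display construct carrying a PA tag. Rows were kept only if the AF2 dimer inter-PAE was >15, to exclude likely homo-oligomers.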

[2] = folding stability dG unfold (combined trypsin and chymotrypsin); higher = more stable
Procedure, shortened: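 K50 was inferred by Bayesian fitting of sequencing counts obtained after protease digestion of designed mini-proteins. Unfolding free energy was derived by comparison with a sequence-predicted unfolded-state K50 and a shared folded-state K50, for each protease or both combined. The mini-proteins were under 80 residues, had no cysteine, were carried in a PA-tagged cDNA display construct, and were kept only if AlphaFold2 dimer inter-PAE exceeded 15.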

Sequence | folding stability dG unfold [1] | folding stability dG unfold [2]
SAGGSAGGMPSDTPFTITKITSVTLNDGRGTTKAVVSYPDGSLVTISSSELERLTKENPNLNLVSAGGSAGG [r6_78_JUSTAS] | 0.384 ± 0.062 kcal/mol | -0.0536 ± 0.13 kcal/mol
SAGMDPNEKREVVVELEFEVPDPSNPEGGSVPIRVTLKATGKGTEEEAEELKKKAEEEAREKVEKGELLSAG [r5_532_JUSTAS] | 0.687 ± 0.15 kcal/mol | -0.287 ± 0.56 kcal/mol
SAGGSAGGSAGGSMPLRKVTVSRPDSTLEFEFPESVPEEEVKEKLKKEYPNAEVKVEPESAGGSAGGSAGGS [r4_155_JUSTAS] | -0.633 ± 0.25 kcal/mol | < -1 kcal/mol
SAGGSAGGSAGGMKVSVSLDILETEVSPDGTVTATYKDESGEIRTITKYVEVKLKPGLASAGGSAGGSAGGS [r10_281_JUSTAS] | -0.148 ± 0.067 kcal/mol | -0.237 ± 0.19 kcal/mol
SAGGSAGGSATVIIMVDPDDIEEALKEAPPNSKVMIHNPDNGYMFEITPNKLEIVEPIPPGDSAGGSAGGSA [r18_246_TrROS] | 0.279 ± 0.058 kcal/mol | -0.0908 ± 0.23 kcal/mol
SAGGSAGGSMIVVKTENGEEIEISKDALKPGMTAEELKAKLPPGVKKIEIVEVKEVEVEVEEESAGGSAGGS [r20_161_TrROS_Hall] | -0.865 ± 0.4 kcal/mol | < -1 kcal/mol
SVVTLEQVAELVEKGVELVAVLPDNRLLFYDPEREEPIELEVEEVPPPKPIFIEGGVESLEEALKFLEAESA [r9_649_TrMRF] | 0.456 ± 0.027 kcal/mol | -0.381 ± 0.37 kcal/mol
SAGGSAGGSAGGSERHTAVLVDTGFRISPAPEEGGLRLEAGASLTIREVPEDALKEVLGSAGGSAGGSAGGS [r4_274_TrMRF] | -0.398 ± 0.26 kcal/mol | < -1 kcal/mol
SAGMKVEVVERKGPDGRLVRVVKETTITPVPGPAVAEANGAPLTPEDEKVVTVTTTVLDPEGKVLETVDSAG [r5_128_JUSTAS] | -0.903 ± 0.43 kcal/mol | < -1 kcal/mol
SAGGGVSTSTDPNSDTTTTTVPLPNSDSTATSTHNPSTGTSTTTVPTNNTTTTYSPGGTTTATTTLPTSAGG [r13_101_JUSTAS] | 0.465 ± 0.034 kcal/mol | -0.425 ± 0.18 kcal/mol
SVPPFLNLPEAAKALAKAKPGPPVPRLTFPVTTDDPEEALEEILKQYPHLHPDKIKRVEVGDGYLTVEFGSA [r9_723_TrMRF] | -0.936 ± 0.34 kcal/mol | < -1 kcal/mol
SAGGSAGGSAGEPEKPVLVKVILPGGKPLLIPGKREEAKKAVEELEKKGFPVEKAEVFDESAGGSAGGSAGG [r11_946_TrMRF] | -0.485 ± 0.096 kcal/mol | < -1 kcal/mol
SAGGSAGGSAGGPEYIQINIKIYDPDNPKEREIPISMPVEEIEKIAKEFMPPGYRVEIISAGGSAGGSAGGS [r10_397_TrROS] | 0.152 ± 0.14 kcal/mol | < -1 kcal/mol
SAGGGSHTFKDNGKKIKITVYPPPNGNMRVQLQIYDPDDGKPKPKAIAPFRGGSVEDAIKDLLDAGISAGGS [r16_378_TrROS] | -0.0278 ± 0.19 kcal/mol | -0.625 ± 0.32 kcal/mol
SMTITHKIPPDDPEKAEEEIKEKIEKETGLKVEKVEVPEGDGATLVVTIDKEKPVVTAEVVPLLPDGTPVSA [r9_173_JUSTAS] | 0.85 ± 0.17 kcal/mol | 0.191 ± 0.35 kcal/mol
SAGGSAGGSAGPITITDIPSEEEAAALIAARPGVEVERKPVTLSEEERWEVTLTLPGEAASAGGSAGGSAGG [r17_542_JUSTAS] | 0.157 ± 0.058 kcal/mol | -0.722 ± 0.18 kcal/mol
SAGGSAGGSAGGMKVEVVDITGPPDLSPDATTTTKHPNGVTSTTTMTDPATRTSTIYTPESAGGSAGGSAGG [r11_362_JUSTAS] | -0.899 ± 0.83 kcal/mol | < -1 kcal/mol
SAGGSAGGSAGGMTTITVKDKTKEEIEKELAEKYNVKKVTVTPIEGNSVKVEVEIEPLGSAGGSAGGSAGGS [r10_1219_JUSTAS] | -0.216 ± 0.19 kcal/mol | -0.948 ± 0.46 kcal/mol
SAGGSAGGSTTSTIKVTLENPSGSPLKLETATITTDPVAGTSTLTVTVPGTGETKFVGTNPNLSSAGGSAGG [r6_330_JUSTAS] | 0.713 ± 0.052 kcal/mol | 0.107 ± 0.061 kcal/mol
SAGGSAGGSAGGRITINPENGMVQIKGPNGNQHTFPMDDASELQKEFGLPNIDIEVFPPNSAGGSAGGSAGG [r7_235_TrROS] | 0.292 ± 0.15 kcal/mol | -0.145 ± 0.22 kcal/mol
SAGGSAFKELLKEIKEQLQQAPPGEQVEVPIPFPDGYPLRIEINPDENKIEVEYPNGEEEEFDIPPSAGGSA [r15_977_TrROS] | 0.133 ± 0.19 kcal/mol | < -1 kcal/mol
SAGGSAGGSKIKILFDPNMTLEEAIELAEKLTKEFDAEVELEIIPKPKPKPLPVIDPENPKLLSAGGSAGGS [r12_159_TrMRF] | 0.252 ± 0.028 kcal/mol | -0.72 ± 0.3 kcal/mol
SAGGSAGGSGEEIIKKIAESLIPGHPNLKPDKITYDPKTGKITIKTKNPKAAKLLKELDLIKPSAGGSAGGS [r12_623_TrMRF] | -0.446 ± 0.28 kcal/mol | < -1 kcal/mol
SAGGMDVKVEVKEVELPEAKVTITKITTPDGSTSTITYDPETGTADVTTTTPTSTTTTTLPKSEIKPLSAGG [r13_328_JUSTAS] | 0.846 ± 0.097 kcal/mol | 0.184 ± 0.31 kcal/mol

Sequence | folding stability dG unfold [1] | folding stability dG unfold [2]
SAGGSAGGSAGGPMSNVVEEVVSVEVTNPGLPDSRFVTNPEPGVPLPVPRTVPVVIVLRASAGGSAGGSAGG [r11_257_JUSTAS] | -0.602 ± 0.33 kcal/mol | < -1 kcal/mol
SAGMEVTVTDPIPLDPTPDGVPDVKPELVEERAKAAGFTDEIESVDTTPKPDSVTTTVTHPTATLTAGSAGG [r19_398_JUSTAS] | -0.201 ± 0.082 kcal/mol | < -1 kcal/mol
SAGGSAGGSAGGIWIPGDDIKEALKKMPPDVTKHIFNPDEGRWIMIKVNDNKIDIEPWPSAGGSAGGSAGGS [r10_137_TrROS] | -0.392 ± 0.16 kcal/mol | -0.748 ± 0.36 kcal/mol
SAGGSAGGSAGITIEFPEEENNFRVENPNDGKKHEIPGTPDEIKEYALDKFPGRPIKIHPSAGGSAGGSAGG [r11_614_TrROS] | 0.11 ± 0.079 kcal/mol | -0.511 ± 0.43 kcal/mol
SAGGSNNDNQPEPKVPYMEITINIPVNYNPNQSEEDRKRQVQEFIEELKDMYIPFPNGYPIRIDVMSAGGSA [r2_149_TrROS] | 0.149 ± 0.13 kcal/mol | -0.554 ± 0.49 kcal/mol
SAGGSYRIEIEDIDPKPQWRPNPNGEWEPRPTLTIEVKIERNPDEMPEKEKQKIEEQAERIAKKFFSAGGSA [r2_40_TrROS] | -0.436 ± 0.4 kcal/mol | < -1 kcal/mol
SAGGSITLEIELPNGAKITVTIEYDEETGTVTIEAEITLPNGTVIRIKATINKDGTITIEKIEVFKPSAGGS [r16_213_TrROS_Hall] | 4.82 ± 0.69 kcal/mol | > 6 kcal/mol
SAGGSAGGSAKITIPASQITHVDLETGELLVDHPSGRPIIFRVDPDRPDLILVEDPSGLSLGSAGGSAGGSA [r18_418_TrMRF] | -0.703 ± 0.15 kcal/mol | < -1 kcal/mol
SAGGSTLDELIDAIKKAAKKGKEPVEIEFPNPNGGMIKINPDGSIETFPPNGEPQRFKIPLDDLKISAGGSA [r2_97_TrROS] | -0.568 ± 0.11 kcal/mol | -0.781 ± 0.25 kcal/mol
GMVLVRVELYRPDEEELVAEVEIPFPVPESLLENLSEEEREKLREEAEKAAEKLAEELGDVEVKPEIYTDLS [r1_115_TrMRF] | 0.147 ± 0.095 kcal/mol | -0.317 ± 0.42 kcal/mol
SAGPGNWFIMIFINIEIKLETVPDPDGKPWLKITISIKFFVMIVRLPPDGKARMEMFPITIKFTFTIPLSAG [r5_428_TrROS] | 4.17 ± 0.29 kcal/mol | > 6 kcal/mol
SAGGMRIWRVPETGVRAEVGTGGPWLVTITSSTTPVPEVRPVPPEEVEAFLRARFPGPVEEVERRPVPESAG [r5_519_JUSTAS] | -0.647 ± 0.34 kcal/mol | -0.783 ± 0.19 kcal/mol
SAGGSAGGSAGGVRIRPPNGEWIRIDNAPDDEDIKDKLKKHPNVKPEIDPDTNEAWIPVSAGGSAGGSAGGS [r10_792_TrROS] | -1.09 ± 0.42 kcal/mol | < -1 kcal/mol
SAMLTTLETTTTTSDSLTVTTSLSLLPDGSLVTTTTVIDTSGNVLSSTTTVEPGPPPVTPENIALMVRLSAG [r14_171_JUSTAS] | 0.298 ± 0.12 kcal/mol | 0.125 ± 0.29 kcal/mol
SAGGSAGGSMKTALLDDGKTIPLPEEELPPDAGVEEVAKKIPPEAKKLTVKEPDGSTKTVPLASAGGSAGGS [r20_161_JUSTAS] | -0.0521 ± 0.2 kcal/mol | < -1 kcal/mol
SAGGSAGGSKFPKKFTVEVYTLTKKLKTPEGKLKTETTVLIEKTEEIKPLPEIDEERVEKVLLSAGGSAGGS [r12_1060_JUSTAS] | 0.166 ± 0.71 kcal/mol | < -1 kcal/mol
SAGGRPTMTAEEAAIRLIKELGIPGVKDIKEVVAVVRGGDPDNKPEKGSAILIKAEVPAEEVERLKKESAGG [r13_552_TrMRF] | 0.221 ± 0.045 kcal/mol | -0.299 ± 0.11 kcal/mol
SAGGSAGGSAGGRIRLPNMPPGHDMEIKSIKVPEPGPVKLTIEPPGSDKKQERYMPPDDISAGGSAGGSAGG [r7_342_TrROS] | 0.0711 ± 0.23 kcal/mol | < -1 kcal/mol
SAGGSAGGSSMPLLTKETSESYDPVNNTKTTTERIEEPGSGKFVFTKTTTTYPDGTVTTTLVESAGGSAGGS [r12_115_JUSTAS] | -0.336 ± 0.42 kcal/mol | -0.652 ± 0.35 kcal/mol
SAGGSAGGSKITITIAPGMSEEEAKKLAEELAKEFNIEIEVKIEPLKPVEKKFYVDKETNEIKSAGGSAGGS [r12_159_TrROS_Hall] | -0.357 ± 0.19 kcal/mol | < -1 kcal/mol
SSMSTPSSSTLTVELPDREVTASATTTTLPDGTTTTTTTFPDGSTITYDPATGTTTIYDPATGAPLATTGSA [r9_970_JUSTAS] | 0.959 ± 0.048 kcal/mol | 0.344 ± 0.047 kcal/mol
SAGGSAGGSAGGGSMTLSLDTRPEDGTLVLVSTFVDPASGLVSVTTTYPDSTVTTTLPVGSAGGSAGGSAGG [r7_402_JUSTAS] | 0.998 ± 0.049 kcal/mol | 0.528 ± 0.087 kcal/mol
SAGGPVVLKIEIEQKTDGKPQERELVIPVKWDPNGQVDADEIKDWVEEALPPGYKIEDIDVVPPGQPFSAGG [r13_504_TrROS] | -0.594 ± 0.22 kcal/mol | < -1 kcal/mol
